Reference: the nanobody polyreactivity screen of Harvey et al. (2022)

Experiment: yeast display, Sf9 membrane polyspecificity reagent, FACS + sequencing; frameworks hold sequencing errors
Procedure, shortened: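 Nanobodies from a synthetic yeast display library (Saccharomyces cerevisiae BJ5465), induced 36–48 hours with galactose, were stained 1 hour at 4 °C with 10% biotinylated, detergent-solubilized Sf9 membrane reagent, enriched on streptavidin microbeads, then FACS-sorted. Anti-HA (expression) and streptavidin (reagent binding) fluorescence set low and high (top ~1%) gates. Polyreactivity labels come from the gate of origin. Genes were colony-PCR amplified, MiSeq 2 × 250 sequenced and filtered by CDR length.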

Sequence	polyreactivity (PSR sort gate)
QVQLVESGGGLVQAGGSLRLSCAASGGTFAVNVMGWYRQAPGKERELVAAITSNGGSTYYADSVNGRFTISRDNAKNTVYLQMNSLKPEDTAVYYCAAEGSGWYTGHYYYWGQGTQVTVSS	low polyreactivity
QFQLVESGGGLVQAGGSLRLRCAASGQTFRYYAMGWYRQAPGKERELVAAITRRGSTYYADSVKGRFTISRDNAKNTVNLQINSLKPEDTAVYYCATVTGFHSSPLRDLDYWGQGTQVTVSS	high polyreactivity
QVQLVESGGGLVQAGGSLRLSCAASGRTFWYYTMGWYRQAPGKERELVASITYRGGSTYYADSVKGRFTISRDNAKNTDYLQMNSLKPEDTAVYYCNARYKRYSYDYWGQGTQVTVSS	high polyreactivity
QVQLVESGGGLVQAGGSLRLSCAASGSIFTFYTMGWYRQAPGKERELVAAISQTGGRTYYADSVKGRFTISRDNAKNTVYLQMNSLKPEDTAVYYCAARSKRLAHDYWGQGTQVTVSS	high polyreactivity
QVQLVESAGGLVQAGGSLRLSCAASGFIFPRYAMGWYRQAPGKERELVAAISYSGGSTYYADSVKGRFTISRDNAKNTVYLQMNSLKPEDTAVYYCNAYFLSQYQRAYRDDYWGQGTQVTVSS	high polyreactivity
QVQLVESGGGLVQAGGSLRLSCAASGFTFDYYALGWYRQAPGKERELVAAISRGGSTYYADSVKGRFTISRDNGKNTFYLQMNSLKPEDTAVYYCAVSAGKRRLDYWGQGTQVTVSS	high polyreactivity
QVHLVESGGGLVQAGGSLRLSCAASGNTFQRYTMGWYRQAPGKERELVAAITWSGGNTYYADSVKGRFTISRDNEKNTVYLQMNSLKPEDTAVYYCNADYPTTAYDYWGQGTQVTVSS	low polyreactivity
QVQLVESGGGLVQAGGSLRLSCAASGITFRKYFMGWYRQAPGKERELVATITRNGGTTNYADSVKGRFTISRDNAKNTVYLQMNSLKPEDTAVYYCAAPGPGYIYLGFDYWGQGTQVTVSS	high polyreactivity
QVQLVESGGGLVQAGGSLRLSCAASGNTFEFYAMGWYRQAPGKERELVAAISASGGRTYYADSVKGRFTISRDNAKNTVYLQMNSLKPEDTAVYYCAAVRKSTRFDYWGQGTQVTVSS	high polyreactivity
QVQLVESGGGLVQAGGSLRLSCAASGSIFRGYAMGWYRQAPGKERELVAAINSSGGRTYYADSVKGRFTISRDNAKKTVYLQMNSLKPEDTAVYYCNARSKYPSYFSSMGYWGQGTQVTVSS	high polyreactivity
QVQLVESGGGLVQAGGSLRLSCAASGFIFANNAMGWYRQAPGKERELVAAITSRGASTYYADSVKGRFTISRDNAKNTVYLQMNSLKPEDTAVYYCAKATYHYRRYYWGQGTQVTVSS	high polyreactivity
QVQLVESGGGLVQAGGSLRLSCAASGSIFQSYAMGWYRQAPGKERELVATITISDGSTYYADSVKGRFTISRDNAKNTVYLQMNSLKPEDTAVYYCAATDYISYGAPLRRGLNYDYWGQGTQVTVSS	low polyreactivity
QVQLVESGGGLVQAGGSLRLSSAASGRTFFRYAMGWYRQAPGKERELVAAITWSGGTTYYADSVKGRFTISRDNAKNTVYLQMNSLKPEDTAVYYCNGRGLWYRRVVTYGYWGQGTQVTVSS	high polyreactivity
QVQLVESGGGLVQAGGSLRLSCAASGRIFVKYVMGWYRQAPGKERELVAAISSSGGRTYYADSVKGRFTISRDNAKNTVYLPMNSLKPEDTAVYYCNAVRRRSSLKLDSWGQGTQVTVSS	high polyreactivity
QVQLVESGGGLVQAGGSLRLSCAASGSTYYTYAMGWYRQAPGKERELVAAISWSGGTTYYADSVKGRFTISRDNAKNTVSLQMNSLKPEATAVYYCASDRDGILKANVYWGQCTQVTVSS	low polyreactivity
QVQLVESGGGLVQAGGSLRLSCAASGSIFSKYTMGWYRQAPGKERELVAAIRGSGVRTYYADSVKGRFTISRDNAKNTVYLQMNSLKPEDTAVYYCAKVVYRGKVALWISSTAGSDYWGQGTQVTVSS	low polyreactivity
